Experimental data: PMC11443083

What was measured:
[1] = biological target: T1, PAR1 receptor (1–425 amino acids) D256A (human) (UniProt P25116)
T1 sequence: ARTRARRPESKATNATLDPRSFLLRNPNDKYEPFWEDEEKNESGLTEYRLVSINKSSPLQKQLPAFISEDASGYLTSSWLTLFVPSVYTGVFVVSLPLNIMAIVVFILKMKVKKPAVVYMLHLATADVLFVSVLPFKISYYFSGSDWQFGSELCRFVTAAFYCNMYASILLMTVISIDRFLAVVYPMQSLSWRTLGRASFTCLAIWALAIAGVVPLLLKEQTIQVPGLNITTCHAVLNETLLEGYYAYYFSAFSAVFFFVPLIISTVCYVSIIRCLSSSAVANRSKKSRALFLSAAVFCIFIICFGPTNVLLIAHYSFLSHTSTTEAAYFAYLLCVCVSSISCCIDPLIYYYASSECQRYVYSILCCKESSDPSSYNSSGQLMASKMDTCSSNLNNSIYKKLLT

[2] = biological target: T2, PAR1 receptor (1–425 amino acids) Y350A (human) (UniProt P25116)
T2 sequence: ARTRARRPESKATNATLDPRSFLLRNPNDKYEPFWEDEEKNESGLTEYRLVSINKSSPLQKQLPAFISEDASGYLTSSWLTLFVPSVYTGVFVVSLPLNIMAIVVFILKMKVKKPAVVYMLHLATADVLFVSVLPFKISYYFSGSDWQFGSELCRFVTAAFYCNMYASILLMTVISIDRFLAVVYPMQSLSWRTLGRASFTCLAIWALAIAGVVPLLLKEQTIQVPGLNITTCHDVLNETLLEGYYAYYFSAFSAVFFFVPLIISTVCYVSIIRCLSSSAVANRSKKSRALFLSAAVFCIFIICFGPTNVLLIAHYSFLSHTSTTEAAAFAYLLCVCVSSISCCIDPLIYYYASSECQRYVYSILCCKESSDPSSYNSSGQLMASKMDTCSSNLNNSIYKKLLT

NanoBiT Gαq–Gγ dissociation in HEK293T cells induced by the synthesized TA peptide; fold decrease of potency against WT PAR1 [1]: 33 fold
NanoBiT Gαq–Gγ dissociation in HEK293T cells induced by the synthesized TA peptide; fold decrease of potency against WT PAR1 [2]: 158 fold
Binder: SFLLRN [Synthesized TA peptide (SFLLRN)]
